Results reported in article PMC10786891, “Massively parallel profiling of RNA-targeting CRISPR-Cas13d”.

T1: EsCas13d, nuclease-dead (Eubacterium siraeum, UniProt B0MS50, R295A;H300A;R849A;H854A)
T1 sequence: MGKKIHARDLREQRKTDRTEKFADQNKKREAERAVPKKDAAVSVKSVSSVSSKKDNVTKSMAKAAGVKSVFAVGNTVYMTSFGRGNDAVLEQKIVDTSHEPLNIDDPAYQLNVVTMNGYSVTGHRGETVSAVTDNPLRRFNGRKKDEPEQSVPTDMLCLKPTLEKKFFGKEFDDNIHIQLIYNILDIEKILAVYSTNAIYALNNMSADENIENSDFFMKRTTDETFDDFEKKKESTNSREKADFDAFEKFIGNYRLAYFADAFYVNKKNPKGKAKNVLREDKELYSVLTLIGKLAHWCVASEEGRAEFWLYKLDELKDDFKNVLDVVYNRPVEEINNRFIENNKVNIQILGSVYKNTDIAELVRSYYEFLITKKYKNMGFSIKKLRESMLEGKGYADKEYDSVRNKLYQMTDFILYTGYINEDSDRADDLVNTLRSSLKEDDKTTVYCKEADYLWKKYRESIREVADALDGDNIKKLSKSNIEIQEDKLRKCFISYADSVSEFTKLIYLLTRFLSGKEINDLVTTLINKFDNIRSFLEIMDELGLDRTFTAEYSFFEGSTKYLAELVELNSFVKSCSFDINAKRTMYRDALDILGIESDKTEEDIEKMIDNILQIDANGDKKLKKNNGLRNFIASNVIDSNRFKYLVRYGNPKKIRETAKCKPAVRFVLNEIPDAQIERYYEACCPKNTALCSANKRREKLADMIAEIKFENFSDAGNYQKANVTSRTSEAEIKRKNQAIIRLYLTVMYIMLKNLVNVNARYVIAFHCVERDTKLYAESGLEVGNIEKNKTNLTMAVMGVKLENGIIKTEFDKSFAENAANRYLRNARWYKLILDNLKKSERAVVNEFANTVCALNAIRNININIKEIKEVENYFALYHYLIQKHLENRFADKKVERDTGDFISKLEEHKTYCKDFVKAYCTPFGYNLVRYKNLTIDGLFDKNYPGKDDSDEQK

B1: target 1 insA 3' of 22,insC 3' of 1 (mixed)
RNA 1: CACCCGUGCAAAAAUGCAGGGGUCUAAAACUGAGCGGAUAACCUCUCUAUGG
RNA 2: GGGAAUGGAUCCACAUCUACGAAUUCGUACACAUAGAGAGGUUAUCCGCUCACCCGAGAUCGGAAGAGCACACGU
B2: target 1 insG 3' of 11,insG 3' of 9 (mixed)
RNA 1: CACCCGUGCAAAAAUGCAGGGGUCUAAAACUGAGCGGAUAACCUCUCUAUGG
RNA 2: GGGAAUGGAUCCACAUCUACGAAUUCGUACCAUAGAGAGGUGUAGUCCGCUCACCGAGAUCGGAAGAGCACACGU
B3: target 1 G12A,A16C (mixed)
RNA 1: CACCCGUGCAAAAAUGCAGGGGUCUAAAACUGAGCGGAUAACCUCUCUAUGG
RNA 2: GGGAAUGGAUCCACAUCUACGAAUUCGUACCAUAGCGAGAUUAUCCGCUCACCGAGAUCGGAAGAGCACACGU
B4: target 1 insC 3' of 17,insG 3' of 8 (mixed)
RNA 1: CACCCGUGCAAAAAUGCAGGGGUCUAAAACUGAGCGGAUAACCUCUCUAUGG
RNA 2: GGGAAUGGAUCCACAUCUACGAAUUCGUACCAUAGCAGAGGUUAUGCCGCUCACCGAGAUCGGAAGAGCACACGU
B5: target 1 del2,del5 (mixed)
RNA 1: CACCCGUGCAAAAAUGCAGGGGUCUAAAACUGAGCGGAUAACCUCUCUAUGG
RNA 2: GGGAAUGGAUCCACAUCUACGAAUUCGUACCAUAGAGAGGUUAUCCCUACCGAGAUCGGAAGAGCACACGU
B6: target 1 insA 3' of 4,insC 3' of 1 (mixed)
RNA 1: CACCCGUGCAAAAAUGCAGGGGUCUAAAACUGAGCGGAUAACCUCUCUAUGG
RNA 2: GGGAAUGGAUCCACAUCUACGAAUUCGUACCAUAGAGAGGUUAUCCGCAUCACCCGAGAUCGGAAGAGCACACGU
B7: target 1 insU 3' of 12,insA 3' of 4 (mixed)
RNA 1: CACCCGUGCAAAAAUGCAGGGGUCUAAAACUGAGCGGAUAACCUCUCUAUGG
RNA 2: GGGAAUGGAUCCACAUCUACGAAUUCGUACCAUAGAGAGGUUUAUCCGCAUCACCGAGAUCGGAAGAGCACACGU
B8: target 1 insG 3' of 10,insU 3' of 9 (mixed)
RNA 1: CACCCGUGCAAAAAUGCAGGGGUCUAAAACUGAGCGGAUAACCUCUCUAUGG
RNA 2: GGGAAUGGAUCCACAUCUACGAAUUCGUACCAUAGAGAGGUUGAUUCCGCUCACCGAGAUCGGAAGAGCACACGU
B9: target 1 insG 3' of 6,insA 3' of 4 (mixed)
RNA 1: CACCCGUGCAAAAAUGCAGGGGUCUAAAACUGAGCGGAUAACCUCUCUAUGG
RNA 2: GGGAAUGGAUCCACAUCUACGAAUUCGUACCAUAGAGAGGUUAUCCGGCAUCACCGAGAUCGGAAGAGCACACGU
B10: target 1 G5C,A18U (mixed)
RNA 1: CACCCGUGCAAAAAUGCAGGGGUCUAAAACUGAGCGGAUAACCUCUCUAUGG
RNA 2: GGGAAUGGAUCCACAUCUACGAAUUCGUACCAUUGAGAGGUUAUCCCCUCACCGAGAUCGGAAGAGCACACGU
B11: target 1 U11A,G12A (mixed)
RNA 1: CACCCGUGCAAAAAUGCAGGGGUCUAAAACUGAGCGGAUAACCUCUCUAUGG
RNA 2: GGGAAUGGAUCCACAUCUACGAAUUCGUACCAUAGAGAGAAUAUCCGCUCACCGAGAUCGGAAGAGCACACGU
B12: target 1 C4A,G12A (mixed)
RNA 1: CACCCGUGCAAAAAUGCAGGGGUCUAAAACUGAGCGGAUAACCUCUCUAUGG
RNA 2: GGGAAUGGAUCCACAUCUACGAAUUCGUACCAUAGAGAGAUUAUCCGAUCACCGAGAUCGGAAGAGCACACGU
B13: target 1 insC 3' of 22,insG 3' of 14 (mixed)
RNA 1: CACCCGUGCAAAAAUGCAGGGGUCUAAAACUGAGCGGAUAACCUCUCUAUGG
RNA 2: GGGAAUGGAUCCACAUCUACGAAUUCGUACCCAUAGAGAGGGUUAUCCGCUCACCGAGAUCGGAAGAGCACACGU
B14: target 1 insA 3' of 4,insA 3' of 2 (mixed)
RNA 1: CACCCGUGCAAAAAUGCAGGGGUCUAAAACUGAGCGGAUAACCUCUCUAUGG
RNA 2: GGGAAUGGAUCCACAUCUACGAAUUCGUACCAUAGAGAGGUUAUCCGCAUCAACCGAGAUCGGAAGAGCACACGU
B15: target 1 insG 3' of 11,insA 3' of 10 (mixed)
RNA 1: CACCCGUGCAAAAAUGCAGGGGUCUAAAACUGAGCGGAUAACCUCUCUAUGG
RNA 2: GGGAAUGGAUCCACAUCUACGAAUUCGUACCAUAGAGAGGUGUAAUCCGCUCACCGAGAUCGGAAGAGCACACGU
B16: target 1 insC 3' of 11,insG 3' of 11 (mixed)
RNA 1: CACCCGUGCAAAAAUGCAGGGGUCUAAAACUGAGCGGAUAACCUCUCUAUGG
RNA 2: GGGAAUGGAUCCACAUCUACGAAUUCGUACCAUAGAGAGGUCGUAUCCGCUCACCGAGAUCGGAAGAGCACACGU
B17: target 1 insA 3' of 15,insU 3' of 1 (mixed)
RNA 1: CACCCGUGCAAAAAUGCAGGGGUCUAAAACUGAGCGGAUAACCUCUCUAUGG
RNA 2: GGGAAUGGAUCCACAUCUACGAAUUCGUACCAUAGAGAAGGUUAUCCGCUCAUCCGAGAUCGGAAGAGCACACGU
B18: target 1 A9C,G17U (mixed)
RNA 1: CACCCGUGCAAAAAUGCAGGGGUCUAAAACUGAGCGGAUAACCUCUCUAUGG
RNA 2: GGGAAUGGAUCCACAUCUACGAAUUCGUACCAUAUAGAGGUUCUCCGCUCACCGAGAUCGGAAGAGCACACGU
B19: target 1 C6U,C22A (mixed)
RNA 1: CACCCGUGCAAAAAUGCAGGGGUCUAAAACUGAGCGGAUAACCUCUCUAUGG
RNA 2: GGGAAUGGAUCCACAUCUACGAAUUCGUAACAUAGAGAGGUUAUCUGCUCACCGAGAUCGGAAGAGCACACGU
B20: target 1 insC 3' of 12,insC 3' of 11 (mixed)
RNA 1: CACCCGUGCAAAAAUGCAGGGGUCUAAAACUGAGCGGAUAACCUCUCUAUGG
RNA 2: GGGAAUGGAUCCACAUCUACGAAUUCGUACCAUAGAGAGGCUCUAUCCGCUCACCGAGAUCGGAAGAGCACACGU
B21: target 1 insC 3' of 22,insU 3' of 9 (mixed)
RNA 1: CACCCGUGCAAAAAUGCAGGGGUCUAAAACUGAGCGGAUAACCUCUCUAUGG
RNA 2: GGGAAUGGAUCCACAUCUACGAAUUCGUACCCAUAGAGAGGUUAUUCCGCUCACCGAGAUCGGAAGAGCACACGU
B22: target 1 insA 3' of 19,insU 3' of 18 (mixed)
RNA 1: CACCCGUGCAAAAAUGCAGGGGUCUAAAACUGAGCGGAUAACCUCUCUAUGG
RNA 2: GGGAAUGGAUCCACAUCUACGAAUUCGUACCAUAAUGAGAGGUUAUCCGCUCACCGAGAUCGGAAGAGCACACGU
B23: target 1 C7U,A14U (mixed)
RNA 1: CACCCGUGCAAAAAUGCAGGGGUCUAAAACUGAGCGGAUAACCUCUCUAUGG
RNA 2: GGGAAUGGAUCCACAUCUACGAAUUCGUACCAUAGAGUGGUUAUUCGCUCACCGAGAUCGGAAGAGCACACGU
B24: target 1 insG 3' of 14,insU 3' of 7 (mixed)
RNA 1: CACCCGUGCAAAAAUGCAGGGGUCUAAAACUGAGCGGAUAACCUCUCUAUGG
RNA 2: GGGAAUGGAUCCACAUCUACGAAUUCGUACCAUAGAGAGGGUUAUCUCGCUCACCGAGAUCGGAAGAGCACACGU
B25: target 1 C4U,C6G (mixed)
RNA 1: CACCCGUGCAAAAAUGCAGGGGUCUAAAACUGAGCGGAUAACCUCUCUAUGG
RNA 2: GGGAAUGGAUCCACAUCUACGAAUUCGUACCAUAGAGAGGUUAUCGGUUCACCGAGAUCGGAAGAGCACACGU
B26: target 1 insG 3' of 14,insC 3' of 10 (mixed)
RNA 1: CACCCGUGCAAAAAUGCAGGGGUCUAAAACUGAGCGGAUAACCUCUCUAUGG
RNA 2: GGGAAUGGAUCCACAUCUACGAAUUCGUACCAUAGAGAGGGUUCAUCCGCUCACCGAGAUCGGAAGAGCACACGU
B27: target 1 insU 3' of 13,insA 3' of 10 (mixed)
RNA 1: CACCCGUGCAAAAAUGCAGGGGUCUAAAACUGAGCGGAUAACCUCUCUAUGG
RNA 2: GGGAAUGGAUCCACAUCUACGAAUUCGUACCAUAGAGAGUGUUAAUCCGCUCACCGAGAUCGGAAGAGCACACGU
B28: target 1 insG 3' of 14,insU 3' of 6 (mixed)
RNA 1: CACCCGUGCAAAAAUGCAGGGGUCUAAAACUGAGCGGAUAACCUCUCUAUGG
RNA 2: GGGAAUGGAUCCACAUCUACGAAUUCGUACCAUAGAGAGGGUUAUCCUGCUCACCGAGAUCGGAAGAGCACACGU

Target: T1, EsCas13d, nuclease-dead
Assay: crRNA (strand 1, pre-loaded); Mg2+; 40 mM Tris-HCl pH 7.5, 150 mM NaCl, 6 mM MgCl2, 1 mM DTT, 0.1% Tween-20, 0.2 mg/ml BSA; 25 C; 10 min per concentration, then washed
Details: tags: His6-TwinStrep-SUMO cleaved; N-terminal SNAP kept (SNAP-Surface 488); label: 3' end held by stalled T7 RNA polymerase

Binder	Kd
B1	12.8 ± 0.8 nM
B2	17.2 ± 0.6 nM
B3	36 ± 3.3 nM
B4	58 ± 16 nM
B5	16.9 ± 1 nM
B6	18.9 ± 3.3 nM
B7	6.6 ± 0.8 nM
B8	18.1 ± 1.4 nM
B9	6.9 ± 0.4 nM
B10	27 ± 4 nM
B11	4 ± 0.29 nM
B12	4.9 ± 0.5 nM
B13	47 ± 5 nM
B14	6.2 ± 0.5 nM
B15	21.5 ± 2.4 nM
B16	42 ± 4 nM
B17	6.7 ± 0.7 nM
B18	62 ± 23 nM
B19	15.8 ± 1.4 nM
B20	17 ± 2.8 nM
B21	30 ± 5 nM
B22	32 ± 1.6 nM
B23	37 ± 5 nM
B24	18.5 ± 1.2 nM
B25	5.28 ± 0.32 nM
B26	47 ± 12 nM
B27	26 ± 5 nM
B28	39 ± 6 nM
